According to patent publication US12186374B2 (Sanofi-Aventis Deutschland GmbH, priority 2014, dated 2025):

Columns and labels:
[1] = tested on: patients with Type 2 diabetes mellitus (T2DM); assay: Patients receiving rescue therapy (Example 2); assay type: in vivo, human
Description: Routing measurements and central lab alerts were set up to ensure that glycemic parameters remained under thresholds values predefined for rescue therapy. If values were above these thresholds, and no explanations were found, or appropriate actions failed, or a dose >60 U was necessary to decrease glycemic parameters below the threshold values, rescue therapy was to be introduced along with IMP and metformin (if taken). Newly initiated anti-diabetic medications, or an increase from baseline in background metformin dose were considered as rescue therapy.

patients with T2DM [2] = assay type: in vivo, human; conditions: Example 3
Text: (§1) Similar MMRM method or analysis of covariance (ANCOVA) was applied on continuous secondary efficacy endpoints and the Cochran-Mantei-Haenszel method stratified by randomization strata was applied for categorical efficacy endpoints.

patients with T2DM [3] = assay: Average 7-point SMPG change from baseline to Week 30 (Example 3); assay type: in vivo, human; conditions: mITT population
Text: In yet another aspect of the present invention, the composition or combination as described herein can be used for improving average 7-point SMPG profile. Self-monitored plasma glucose (SMPG)”, as used herein, is in particular the “7-point Self Monitored Plasma Glucose”. “7-point Self Monitored Plasma Glucose” in particular refers to the measurement of plasma glucose seven times a day and calculation of the average plasma glucose concentration therefrom. The “7-point Self Monitored Plasma Glucose” value is in particular an average plasma glucose concentration including fasting and postprandial conditions. In particular, measurements of plasma glucose concentration are performed pre-breakfast, post-breakfast (e.g. 2-hour post-breakfast), pre-lunch, post-lunch (e.g. 2-hour post-lunch), pre-dinner, post-dinner (e.g. 2-hour post-dinner) and at bed-time. The treatment by the combination of the present invention, as described herein, can improve the self-monitored plasma glucose.
The 7-point SMPG profile should be measured at the following 7 points: pre-prandial and 2 hours postprandial for breakfast, lunch, dinner and at bedtime. Two hours postprandial (breakfast, lunch and dinner) is defined as 2 hours after the start of the meal.
The patients are requested to perform 7-point SMPG profile measurement over a single 24-hour period on 2 Different Days in the Week Before V6 (Week 0), V15 (Week 12), and V21 (week 30, end of treatment assessment visit). All SMPG values measured on these days will be recorded in diary and transferred into the e-CRF.
as §1

patients with T2DM [4] = assay: HbA1c change from baseline to Week 30 (Example 3, with or without metformin); assay type: in vivo, human
Description: For the eligibility and efficacy assessments of the study, HbA1c is measured by a certified level I “National Glycohemoglobin Standardization Program” (NGSP) central laboratory.
Methodology: This was an open-label, 1:1 randomized, active-controlled, 2-arm, 30-week treatment duration, parallel-group multinational and multicenter study. The randomization was stratified by value of HbA1cat Visit 5 (Week −1) (<8%, ≥8%) and metformin use at screening (Y, N).
Diagnosis and criteria for inclusion: Inclusion criteria: Patients with type 2 diabetes mellitus diagnosed for at least 1 year and inadequately controlled on their current antidiabetic treatment. Patients had to be treated with basal insulin for at least 6 months at a stable daily dose of 15 to 40 U, alone or combined with 1 or 2 oral anti-diabetic drugs ((metformin, an SU, a glinide, a DPP-4 inhibitor, or a SGLT-2 inhibitor) at a stable dose for at least 3 months. Key exclusion criteria for randomization (at the end of the run-in phase): HbA1c<7% or >10% at Visit 5 (week −1); mean fasting SMPG >140 mg/dL (7.8 mmol/L) for the 7 days before the randomization Visit (Visit 6); average insulin glargine daily dose <20 U or >50 U calculated for the last 3 days before Visit 6.
Efficacy analysis was based on modified intent-to-treat (mITT) population using efficacy assessment collected during the study, including those obtained after IMP discontinuation or introduction of rescue therapy. The mITT population consisted of all randomized patients who had both a baseline assessment and at least one post-baseline assessment of any primary or secondary efficacy variables.
The primary efficacy endpoint was analyzed using a mixed-effect model with repeated measures (MMRM). The MMRM model included the treatment groups, randomization strata, visit, treatment-by-visit interaction, and country as fixed-effect factors, and the baseline HbA1c-by-visit interaction as covariate.

patients with T2DM [5] = tested on: patients with T2DM; design: species or system human; conditions: in vivo
Text: The mission of the ARAC will be to adjudicate, in a timely manner, all allergic, or possible allergic events.
In case a patient experiences an allergic reaction or an allergic-like reaction this has to be reported as an adverse event and recorded in the e-CRF on the specific AE form for suspected allergic event. Additional information is collected on specific allergic reaction complementary form. Allergic reaction or possible allergic reaction will be adjudicated by the ARAC (Section 5.4.2).
The number (%) of patients with events adjudicated as allergic reactions by ARAC and with events adjudicated by ARAC as possibly related to the IMP will be summarized by treatment group. All the allergic events reported by the investigators on the AE form for suspected allergic event and its associated complementary forms (confirmed or not confirmed by ARAC) will be listed.

[6] = tested on: patients with Type 2 diabetes mellitus (T2DM); assay: ALT increase reported on AE form (Example 2); conditions: on-treatment period
patients with T2DM [7] = assay: Pen-related event questionnaire (Example 3); conditions: on-treatment period
patients with T2DM [8] = assay: Symptomatic hypoglycemia (Example 3)
[9] = on-treatment period, Safety population
[10] = plasma glucose <60 mg/dL [[…]], on-treatment period, Safety population
[11] = plasma glucose ≤70 mg/dL [[…]], on-treatment period, Safety population

With “Gly(A21)-Arg(B31)-Arg(B32)-human insulin [Insulin Glargine]” the “Patients who received rescue therapy, %” value [1] was 3.4%, the “Patients who received rescue therapy, number” value [1] was 16 patients and the “Patients reaching HbA1c<7.0% with no body weight gain and no documented symptomatic hypoglycemia” value (patients with T2DM [2]) was 9.0%. For the same substance, the “Patients reaching HbA1c<7.0% at Week 30 with no documented symptomatic hypoglycemia” value (patients with T2DM [2]; 30-week treatment period) was 18.6%, the “Average of 7-point SMPG, change from baseline to Week 30, LS Mean (SE)” value (patients with T2DM [3]; MMRM) was −0.60 (0.130) mmol/L and the “Average of 7-point SMPG at Week 30, Mean (SD)” value (patients with T2DM [3]) was 8.62 (1.74) mmol/L. The “Average of 7-point SMPG at Week 30, Median” value (patients with T2DM [3]) was 8.26 mmol/L, the “Mean HbA1c level at Week 30” value (patients with T2DM [4]; Example 3) was 7.5% and the “HbA1c change from baseline to Week 30, LS Mean (SE)” value (patients with T2DM [4]; MMRM, mITT population) was −0.62 (0.055) %. For the same substance, the “HbA1c at Week 30, Mean (SD)” value (patients with T2DM [4]; mITT population) was 7.48 (0.91) %, the “HbA1c at Week 30, Median” value (patients with T2DM [4]; mITT population) was 7.40% and the “% of patients with events adjudicated as allergic reaction by ARAC: Any category, Any event” value (patients with T2DM [5]) was 0.3%. The “% of patients with events adjudicated as allergic reaction by ARAC: Not Related to IMP” value (patients with T2DM [5]) was 0.3%, the “% of patients with events adjudicated as allergic reaction by ARAC: Other, Rhinitis allergic” value (patients with T2DM [5]) was 0.3% and the “% of patients with events adjudicated as allergic reaction by ARAC: category Other” value (patients with T2DM [5]) was 0.3%. The “Events adjudicated as allergic reaction by ARAC” value (patients with T2DM [5]) was “One”, the “Number of patients with events adjudicated as allergic reaction by ARAC: Any category, Any event” value (patients with T2DM [5]) was 1 and the “Number of patients with events adjudicated as allergic reaction by ARAC: Not Related to IMP” value (patients with T2DM [5]) was 1. For the same substance, the “Number of patients with events adjudicated as allergic reaction by ARAC: Other, Rhinitis allergic” value (patients with T2DM [5]) was 1, the “Number of patients with events adjudicated as allergic reaction by ARAC: category Other” value (patients with T2DM [5]) was 1 and the “Patients with AE of ALT increase” value ([6]; Example 2) was 2 patients. The “Events reported on the AE form for ALT increase: Alanine aminotransferase increased” value ([6]; Safety population) was 2 (0.4%) n (%), the “Patients with events reported on the AE form for ALT increase: Any” value ([6]; Safety population) was 2 (0.4%) n (%) and the “Patients reporting pen-related events, %” value (patients with T2DM [7]; Example 3) was 4.1%. For the same substance, the “Patients reporting pen-related events, number” value (patients with T2DM [7]; Example 3) was 15 patients, the “% of patients with events reported in pen-related event questionnaire: Any pen-related events” value (patients with T2DM [7]; Safety population) was 4.1% and the “% of patients with events reported in pen-related event questionnaire: Not associated with a clinical event” value (patients with T2DM [7]; Safety population) was 4.1%. For the same substance, the “Number of patients with events reported in pen-related event questionnaire: Any pen-related events” value (patients with T2DM [7]; Safety population) was 15, the “Number of patients with events reported in pen-related event questionnaire: Associated with a clinical event” value (patients with T2DM [7]; Safety population) was 0 and the “Number of patients with events reported in pen-related event questionnaire: Not associated with a clinical event” value (patients with T2DM [7]; Safety population) was 15. For the same substance, the “Documented symptomatic hypoglycemia event rate per patient-year” value (patients with T2DM [8]; Example 3) was 4.22 per patient-year, the “Patients with at least one event of documented (PG ≤70 mg/dL) symptomatic hypoglycemia” value (patients with T2DM [8]; Example 3) was 42.5% and the “Severe symptomatic hypoglycemia, % of patients” value (patients with T2DM [8]; Example 3) was 0.3%. The “Severe symptomatic hypoglycemia, number of events” value (patients with T2DM [8]; Example 3) was 1 events, the “Severe symptomatic hypoglycemia, number of patients” value (patients with T2DM [8]; Example 3) was 1 patients and the “Probable symptomatic hypoglycaemia: Number of events” value (patients with T2DM [8]; [9]) was 29. For the same substance, the “Probable symptomatic hypoglycaemia: Number of events per patient year” value (patients with T2DM [8]; [9]) was 0.14, the “Probable symptomatic hypoglycaemia: Number of patients with events per patient year” value (patients with T2DM [8]; [9]) was 0.10 and the “Probable symptomatic hypoglycaemia: patients with events, %” value (patients with T2DM [8]; [9]) was “(5.5%)”. The “Severe symptomatic hypoglycaemia: Number of events” value (patients with T2DM [8]; [9]) was 1, the “Severe symptomatic hypoglycaemia: Number of events per patient year” value (patients with T2DM [8]; [9]) was <0.01 and the “Severe symptomatic hypoglycaemia: Number of patients with events per patient year” value (patients with T2DM [8]; [9]) was <0.01. For the same substance, the “Severe symptomatic hypoglycaemia: patients with events, %” value (patients with T2DM [8]; [9]) was “(0.3%)”, the “Symptomatic hypoglycemia: Number of events” value (patients with T2DM [8]; [9]) was 910 and the “Symptomatic hypoglycemia: Number of events per patient year” value (patients with T2DM [8]; [9]) was 4.36. The “Symptomatic hypoglycemia: Number of patients with events per patient year” value (patients with T2DM [8]; [9]) was 0.77, the “Symptomatic hypoglycemia: patients with events, %” value (patients with T2DM [8]; [9]) was “(44.1%)” and the “Documented symptomatic hypoglycaemia: Number of events” value (patients with T2DM [8]; [10]) was 235. The “Documented symptomatic hypoglycaemia: Number of events per patient year” value (patients with T2DM [8]; [10]) was 1.13, the “Documented symptomatic hypoglycaemia: Number of patients with events per patient year” value (patients with T2DM [8]; [10]) was 0.40 and the “Documented symptomatic hypoglycaemia: patients with events, %” value (patients with T2DM [8]; [10]) was “(22.7%)”. The “Documented symptomatic hypoglycaemia: Number of events” value (patients with T2DM [8]; [11]) was 880, the “Documented symptomatic hypoglycaemia: Number of events per patient year” value (patients with T2DM [8]; [11]) was 4.22 and the “Documented symptomatic hypoglycaemia: Number of patients with events per patient year” value (patients with T2DM [8]; [11]) was 0.74. The “Documented symptomatic hypoglycaemia: patients with events, %” value (patients with T2DM [8]; [11]) was “(42.5%)”.
